According to US20040265314A1 (Pfizer, published 2004):

Molecular target: the molecule itself
Assay: Western blot of conditioned media, reducing against non-reducing SDS-PAGE
Experimental: Samples were combined with 2× SDS sample buffer with β-mercapatoethanol and boiled for 2 minutes. After boiling, the samples were loaded onto either a 4-20% gradient gel or 6% SDS gel. Gels were then transferred to nitrocellulose using an Invitrogen blotting apparatus (Invitrogen, Carlsbad, Calif.) and transfer buffer as provided by Invitrogen (Invitrogen, Carlsbad, Calif.). Gels were transferred for 2 hours at 30V under constant current. Nitrocellulose blots were blocked in 5% non-fat dry milk for 1 hour at room temperature. The blots were incubated with 0.5 μg/mL peptide polyclonal antibody overnight at 4° C. After incubation with the primary antibody, the blots were washed 3 times for 10 minutes each in washing buffer (1% Triton×100 (v/v), 0.1% SDS (w/v) in PBS, calcium and magnesium free) and then incubated for 30 minutes with mouse anti rabbit IgG conjugated to horseradish peroxidase (Santa Cruz Biotech, Santa Cruz, Calif.). The blots were washed 3 times for 10 minutes each in wash buffer and developed with the chemiluminescence reagent, ECL. (Amersham, Piscataway, N.J.). The blots were exposed to Kodak film and developed using a film developer.
The conditioned media from both COS and HEK293 transfectants were analyzed by Western blot under reducing and non-reducing conditions to assess whether CLCA1 exists as a multimer in the secreted milieu. […]

B1: human CLCA1 (Calcium Activated Chloride Channel 1) (other)
chain: NSLIQLNNNGYEGIVVAIDPNVPEDETLIQQIKDMVTQASLYLFEATGKRFYFKNVAILIPETWKTKADYVRPKLETYKNADVLVAESTPPGNDEPYTEQMGNCGEKGERIHLTPDFIAGKKLAEYGPQGRAFVHEWAHLRWGVFDEYNNDEKFYLSNGRIQAVRCSAGITGTNVVKKCQGGSCYTKRCTFNKVTGLYEKGCEFVLQSRQTEKASIMFAQHVDSIVEFCTEQNHNKEAPNKQNQKCNLRSTWEVIRDSEDFKKTTPMTTQPPNPTFSLLQIGQRIVCLVLDKSGSMATGNRLNRLNQAGQLFLLQTVELGSWVGMVTFDSAAHVQSELIQINSGSDRDTLAKRLPAAASGGTSICSGLRSAFTVIRKKYPTDGSEIVLLTDGEDNTISGCFNEVKQSGAIIHTVALGPSAAQELEELSKMTGGLQTYASDQVQNNGLIDAFGALSSGNGAVSQRSIQLESKGLTLQNSQWMNGTVIVDSTVGKDTLFLITWTTQPPQILLWDPSGQKQGGFVVDKNTKMAYLQIPGIAKVGTWKYSLQASSQTLTLTVTSRASNATLPPITVTSKTNKDTSKFPSPLVVYANIRQGASPILRASVTALIESVNGKTVTLELLDNGAGADATKDDGVYSRYFTTYDTNGRYSVKVRALGGVNAARRRVIPQQSGALYIPGWIENDEIQWNPPRPEINKDDVQHKQVCFSRTSSGGSFVASDVPNAPIPDLFPPGQITDLKAEIHGGSLINLTWTAPGDDYDHGTAHKYIIRISTSILDLRDKFNESLQVNTTALIPKEANSEEVFLFKPENITFENGTDLFIAIQAVDKVDLKSEISNIARVSLFIPPQTPPETPSPDETSAPCPNIHINSTIPGIHILKIMWKWIGELQLSIA
notes: 914 amino acids; also called hCLCA1; soluble CLCA1
  binding result: binds
